Reference: patent US20250034222A1 (MONASH UNIVERSITY, published 2025)

Target: the molecule itself
Assay: SEC

B1: Wild-type IL-38 (residues 3-152), untagged after TEV cleavage of the N-terminal His10 tag (ligand)
chain: SLPMARYYIIKYADQKALYTRDGQLLVGDPVADNCCAEKICILPNRGLARTKVPIFLGIQGGSRCLACVETEEGPSLQLEDVNIEELYKGGEEATRFTFFQSSSGSAFRLEAAAWPGWFLCGPAEPQQPVQLTKESEPSARTKFYFEQSW
notes: Uncut protein was removed for the Peak A pool; also called IL-38 (WT); WT (D51A) IL-38
binding result: binds
